Experimental findings from article PMC6778621 are described below.

By Kd is commonly meant the concentration at which binding is half-saturated. Low readings indicate tighter binding, high ones weaker binding.

Experiment [1] deals with MET-ECD-Fc-His (WT) (human) (UniProt P08581). Put plainly: SPR. Background: SPR reads the build-up and loss of mass on a sensor chip optically.
Experiment [2] concerns the target MET-ECD-Fc-His V370D (human) (UniProt P08581). The experiment is described as follows: SPR.

As to “SP domain of HGF (β-chain) (domain or fragment)”, the dissociation constant Kd in experiment [1] is 858 nM; in experiment [2], 914 nM.
